From the supplement of paper PMC7877785
± gives the uncertainty stated by the source.

Assay: self-splicing fitness, log relative to wild type (ln ratio); higher = more splicing; Tetrahymena group I intron in knt gene, E. coli kanamycin selection, DiMSum; sequences stand for … in CUCUCU…GGAGGGAAAAGUUAUCAGGCAUGCACCUGGUAGCUAGUCUUUAAACCAAUAGAUUGCAUCGGUUUAAAAGGCAAGACCGUCAAAUUGCGGGAAAGGGGUCAACAGCCGUUCAGUACCAAGUCUCAGGGGAAACUUUGAGAUGGCCUUGCAAAGGGUAUGGUAAUAAGCUGACGGACAUGGUCCUAACCACGCAGCCAAGUCCUAAGUCAACAGAUCUUCUGUUGAUAUGGAUGCAGUUCACAGACUAAAUGUCGGUCGGGGAAGAUGUAUUCUUCUCAUAAGAUAUAGUCGGACCUCUCCUUAAUGGGAGCUAGCGGAUGAAGUGAUGCAACACUGGAGCCGCUGGGAACUAAUUUGUAUGCGAAAGUAUAUUGAUUAGUUUUGGAGUACUCGUGGUCG
Outline: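 DiMSum derived fitness as the error-weighted combination of fold changes across replicates, kanamycin versus no kanamycin, normalised to wild type. E. coli BL21(DE3) held the library, which randomised all eight P1ex-region intron nucleotides within the knt kanamycin-resistance gene on pET-22b(+). Six replicate transformations grew overnight at 37°C or 30°C on LB agar with or without 25 μg/mL kanamycin, also containing 100 μg/mL carbenicillin, 50 μM IPTG and 0.2% rhamnose, and pooled colonies were amplicon-sequenced on an Illumina HiSeq 2500.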

Row | Sequence | self-splicing fitness (ln) (30 °C) | self-splicing fitness (ln) (37 °C)
1 | GGUUAGCAAUAUUACGUGAU | -2.18 ± 0.19 | -1.14 ± 0.2
2 | GUAAAGCAAUAUUACGAUGC | -0.312 ± 0.11 | -0.105 ± 0.11
3 | GUAAAGCAAUAUUACGCAAC | – | -0.263 ± 0.42
4 | GUAAAGCAAUAUUACGCACA | 0.186 ± 0.082 | 0.579 ± 0.11
5 | GUAAAGCAAUAUUACGCCGU | -0.433 ± 0.085 | 0.561 ± 0.11
6 | GUAAAGCAAUAUUACGCGUG | -1.05 ± 0.076 | -0.992 ± 0.08
7 | GUAAAGCAAUAUUACGCUUU | -3.46 ± 0.23 | -1.8 ± 0.27
8 | GUAAAGCAAUAUUACGGACA | -0.403 ± 0.085 | 0.623 ± 0.12
9 | GUAAAGCAAUAUUACGGCAG | -1.5 ± 0.15 | -2.25 ± 0.3
10 | GUAAAGCAAUAUUACGGCAU | -0.176 ± 0.067 | -0.287 ± 0.078
11 | GUAAAGCAAUAUUACGGGCC | -1.92 ± 0.25 | -1.05 ± 0.23
12 | GUAAAGCAAUAUUACGGGCG | -0.457 ± 0.12 | -0.386 ± 0.12
13 | GUAAAGCAAUAUUACGUAAG | -1.95 ± 0.1 | -1.2 ± 0.13
14 | GUAAAGCAAUAUUACGUCCC | -1.07 ± 0.19 | 0.449 ± 0.26
15 | GUAAAGCAAUAUUACGUGAG | -2.03 ± 0.084 | -0.98 ± 0.1
16 | GUAAAGCAAUAUUACGUUAG | -1.01 ± 0.057 | -0.896 ± 0.076
17 | GUAAAGCAAUAUUACGUUCC | -2.91 ± 0.18 | 0.158 ± 0.14
18 | GUACAGCAAUAUUACGAAGU | -3.32 ± 0.17 | -1.67 ± 0.18
19 | GUACAGCAAUAUUACGAAUC | -2.65 ± 0.35 | -1.18 ± 0.18
20 | GUACAGCAAUAUUACGACCG | -2.47 ± 0.19 | -0.419 ± 0.14
21 | GUACAGCAAUAUUACGAGUG | -3.17 ± 0.34 | -1.25 ± 0.18
22 | GUACAGCAAUAUUACGAUGC | -1.03 ± 0.12 | -1.06 ± 0.12
23 | GUACAGCAAUAUUACGCAGU | -4.74 ± 0.31 | -3 ± 0.24
24 | GUACAGCAAUAUUACGCCCC | -1.32 ± 0.2 | -0.26 ± 0.32
25 | GUACAGCAAUAUUACGCCGG | -3.87 ± 0.39 | -2.45 ± 0.24
26 | GUACAGCAAUAUUACGCCGU | -2.95 ± 0.21 | -1.06 ± 0.16

Row | Sequence | self-splicing fitness (ln) (30 °C) | self-splicing fitness (ln) (37 °C)
27 | GUACAGCAAUAUUACGCGCA | -1.07 ± 0.11 | -0.616 ± 0.12
28 | GUACAGCAAUAUUACGCGGC | -1.83 ± 0.34 | -2.11 ± 0.36
29 | GUACAGCAAUAUUACGCUUU | -2.99 ± 0.12 | -1.19 ± 0.12
30 | GUACAGCAAUAUUACGGCAC | -0.68 ± 0.11 | 0.0875 ± 0.12
31 | GUACAGCAAUAUUACGGCAG | -4.02 ± 0.2 | -2.33 ± 0.17
32 | GUACAGCAAUAUUACGGCUG | -3.82 ± 0.21 | -1.38 ± 0.14
33 | GUACAGCAAUAUUACGGUGC | -3.12 ± 0.15 | -2.22 ± 0.18
34 | GUACAGCAAUAUUACGGUUA | -0.862 ± 0.058 | -0.00855 ± 0.057
35 | GUACAGCAAUAUUACGUACU | -2.77 ± 0.14 | -2.79 ± 0.25
36 | GUACAGCAAUAUUACGUAGC | -0.896 ± 0.19 | -2.29 ± 0.25
37 | GUACAGCAAUAUUACGUAUC | -2.87 ± 0.16 | -1.35 ± 0.28
38 | GUACAGCAAUAUUACGUCCA | -2.12 ± 0.13 | -1.23 ± 0.14
39 | GUACAGCAAUAUUACGUCGA | -2.07 ± 0.11 | -1.78 ± 0.12
40 | GUACAGCAAUAUUACGUGAA | -3.94 ± 0.13 | -1.51 ± 0.11
41 | GUACAGCAAUAUUACGUUAC | -3.89 ± 0.36 | -2.27 ± 0.28
42 | GUAGAGCAAUAUUACGAAAC | 0.2 ± 0.34 | -0.546 ± 0.32
43 | GUAGAGCAAUAUUACGAAGG | -1.87 ± 0.31 | –
44 | GUAGAGCAAUAUUACGACCG | -1.28 ± 0.2 | -1.98 ± 0.46
45 | GUAGAGCAAUAUUACGACGA | -1.85 ± 0.15 | -0.21 ± 0.16
46 | GUAGAGCAAUAUUACGAGGA | -2.61 ± 0.26 | –
47 | GUAGAGCAAUAUUACGAGGG | -3.25 ± 0.27 | -2.38 ± 0.37
48 | GUAGAGCAAUAUUACGAUUA | -0.625 ± 0.1 | -0.396 ± 0.14
49 | GUAGAGCAAUAUUACGCACC | -2.47 ± 0.28 | -0.709 ± 0.2
50 | GUAGAGCAAUAUUACGCACG | -0.718 ± 0.24 | -1.99 ± 0.27
51 | GUAGAGCAAUAUUACGCUCA | -0.751 ± 0.1 | -0.0338 ± 0.16
52 | GUAGAGCAAUAUUACGCUCC | -1.72 ± 0.36 | –

Row | Sequence | self-splicing fitness (ln) (30 °C) | self-splicing fitness (ln) (37 °C)
53 | GUAGAGCAAUAUUACGCUUA | -0.468 ± 0.087 | -0.371 ± 0.1
54 | GUAGAGCAAUAUUACGCUUG | -0.837 ± 0.12 | -0.536 ± 0.19
55 | GUAGAGCAAUAUUACGGAGU | -2.27 ± 0.23 | -1.61 ± 0.18
56 | GUAGAGCAAUAUUACGGCGU | -0.532 ± 0.077 | 0.0227 ± 0.088
57 | GUAGAGCAAUAUUACGUACA | -0.971 ± 0.11 | -1.12 ± 0.17
58 | GUAGAGCAAUAUUACGUCAC | -1.65 ± 0.1 | -1.06 ± 0.12
59 | GUAGAGCAAUAUUACGUCCC | -1.01 ± 0.37 | 0.144 ± 0.41
60 | GUAGAGCAAUAUUACGUCCU | -1.1 ± 0.2 | -0.4 ± 0.22
61 | GUAGAGCAAUAUUACGUUAG | -2.43 ± 0.12 | -0.99 ± 0.19
62 | GUAGAGCAAUAUUACGUUAU | -1.68 ± 0.086 | -0.698 ± 0.091
63 | GUAUAGCAAUAUUACGACAG | -2.58 ± 0.19 | -1.9 ± 0.25
64 | GUAUAGCAAUAUUACGAUUC | 0.127 ± 0.1 | 0.598 ± 0.13
65 | GUAUAGCAAUAUUACGCAGC | -2.32 ± 0.37 | -1.25 ± 0.33
66 | GUAUAGCAAUAUUACGCCCA | -1.33 ± 0.15 | -0.76 ± 0.17
67 | GUAUAGCAAUAUUACGCGGG | -3.7 ± 0.27 | -2.23 ± 0.26
68 | GUAUAGCAAUAUUACGCGGU | – | -2.53 ± 0.44
69 | GUAUAGCAAUAUUACGCUGA | -1.91 ± 0.2 | -1.81 ± 0.17
70 | GUAUAGCAAUAUUACGCUGC | -2.6 ± 0.48 | -0.913 ± 0.3
71 | GUAUAGCAAUAUUACGGAAA | -2.1 ± 0.43 | -2.81 ± 0.32
72 | GUAUAGCAAUAUUACGGACG | -2.73 ± 0.41 | -1.3 ± 0.33
73 | GUAUAGCAAUAUUACGGAGG | -2.94 ± 0.23 | -3.14 ± 0.4
74 | GUAUAGCAAUAUUACGGCAG | -4.25 ± 0.42 | -1.5 ± 0.25
75 | GUAUAGCAAUAUUACGGCCA | -0.388 ± 0.23 | 0.0249 ± 0.18
76 | GUAUAGCAAUAUUACGGGUG | -3.76 ± 0.16 | -2.86 ± 0.22
